Experimental findings from patent US20160280786A1 are described below.

The test deals with cynomolgus monkey CTLA4 (human CTLA4 cDNA with S13N, I17T and L105M) on stably transfected CHO-K1 cells (human cDNA mutated to the cynomolgus monkey extracellular domain) (UniProt P16410). In words: FACS direct binding titration on CHO cells with cynomolgus CTLA4 (head prints IC50).

Numbering of substitutions follows the chain as printed.

Sequence of cynomolgus monkey CTLA4 (human CTLA4 cDNA with S13N, I17T and L105M) on stably transfected CHO-K1 cells (human cDNA mutated to the cynomolgus monkey extracellular domain) (P16410 36-223, stated change not applied): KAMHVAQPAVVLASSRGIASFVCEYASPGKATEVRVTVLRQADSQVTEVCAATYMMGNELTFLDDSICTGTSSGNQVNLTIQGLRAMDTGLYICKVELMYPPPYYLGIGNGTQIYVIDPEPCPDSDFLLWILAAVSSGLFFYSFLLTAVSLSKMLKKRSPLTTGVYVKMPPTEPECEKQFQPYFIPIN

B1: 4CTLAPMP11E3 (VHH)
VHH: EVQLVESGGGLVEPGGSLRLSCAASGSISSYNVMGWYRQAPGQQRDLVAHIASNGEIMYADSAKGRFTISRDNAKKTVYLQMNSLKPEDTAVYYCKLWVLGNDYWGQGTQVTVSS
Usually IC50 stands for the midpoint of a concentration-inhibition curve. In the case of B1, the IC50 was determined as 4.5 nM.

B2: 4CTLAPMP12H2 (VHH)
VHH: B1 VHH with G108R
In turn, B2 registered an IC50 of 5.65 nM.

B3: 4CTLAPMP06C10 (VHH)
VHH: EVQLVESGGGLVQAGGSLRLSCAASGRTFSNYTIAYFRQAPGREREFAAAISPHGTLRSFADSVKDRFTISRDNAKNTVWLQMNSLKLEDTAVYYCAADPSGWGLRQHSENEYPYWGLGTQVTVSS
For the molecule B3, the IC50 worked out at 5.47 nM.

B4: 4CTLAPMP02F2 (VHH)
VHH: EVQLMESGGGLVQTGGSLRLSCAASGRTFSNYTMGWFRQAPGKDREFVAAISRSGSLKAYADSVKGRFTPSRDNAKKMAYLQMNSLKPEDTAVYYCAAAPVPWGTRPSLFPYDSWGQGTQVTVSS
B4 returned an IC50 of 2.42 nM.

B5: 4CTLAPMP02G2 (VHH)
VHH: B4 VHH with M5V, G8R, A59S, P70I, L109F, P111T
Regarding B5, the IC50 was 2.08 nM.

B6: 4CTLAPMP02F4 (VHH)
VHH: B4 VHH with M5V, S56A, L109F
The molecule B6 had an IC50 of 2.36 nM.

B7: 4CTLAPMP02A5 (VHH)
VHH: EVQLVESGGGLVQAGGSLRLSCAASGRTNSTTLMGWSRRAPGKEREFVAAISGSGTLTSYADSVKGRFAISRDNAKNTVYLQMNSLKPEDTAIYYCAAGLTSWALIPSRTLTTWGQGTQVTVSS
Take B7: the IC50 turned out to be 7.74 nM.

B8: 4CTLAPMP2G9 (VHH)
VHH: EVQLVKSGGQLVQAGGSLRLSCAATGRTYNSYPLGWFRQAPGKEREFVAAISASGTLRAYADSVKGRFTISRDSAKNTVYLQMNNLKPEDTAVYYCARARSVGWRASHHLSDYDNWGQGTQVTVSS
The molecule B8 displayed an IC50 of 2.66 nM.

B9: 4CTLAPMP03C4 (VHH)
VHH: EVQLVESGGGLVQAGGSLRLSCAASGGTFSFYGMGWFRQAPGKEREFVADIRTSAGRTYYADSVKGRFTISRDNAKNTVYLQMNSLKPEDTAVYYCAAEMSGISGWDYWGQGTQVTVSS
As to B9, the IC50 was determined as 6.73 nM.

B10: 4CTLAPMP11F1 (VHH)
VHH: B9 VHH with R45Q
For the molecule B10, the IC50 amounted to 5.51 nM.
